Results taken from patent publication US20200115430A1 (I2O THERAPEUTICS, published 2020).
Starred links: 1 amine or outer side, 2 acyl side, 3 side chain; linkers in the order of their positions; H or OH if unused. Positions of bridges follow the written chain, without caps; N, C: chain ends. Groups on a side chain read outwards from the residue. Primed or numbered codes have the meaning given here. No end group written: not given here. *: point of attachment. dpeg″ = —[CO(CH2)O(CH2)2O(CH2)NH]— spacer unit, O=C(COCCOCN[*:1])[*:2]; C20 diacid = O=C(O)CCCCCCCCCCCCCCCCCCC(=O)*; C18 diacid = O=C(O)CCCCCCCCCCCCCCCCC(=O)*; γGlu = O=C(O)[C@H](CCC(=O)[*:2])N[*:1]; Palmitoyl = CCCCCCCCCCCCCCCC(=O)*

Experiments:
human amylin 3 receptor = molecular target: T1, human amylin 3 receptor (human, UniProt P30988 25-474; O60896 24-148); assay: cell-based or functional assay
T1 sequence (looked up) 1: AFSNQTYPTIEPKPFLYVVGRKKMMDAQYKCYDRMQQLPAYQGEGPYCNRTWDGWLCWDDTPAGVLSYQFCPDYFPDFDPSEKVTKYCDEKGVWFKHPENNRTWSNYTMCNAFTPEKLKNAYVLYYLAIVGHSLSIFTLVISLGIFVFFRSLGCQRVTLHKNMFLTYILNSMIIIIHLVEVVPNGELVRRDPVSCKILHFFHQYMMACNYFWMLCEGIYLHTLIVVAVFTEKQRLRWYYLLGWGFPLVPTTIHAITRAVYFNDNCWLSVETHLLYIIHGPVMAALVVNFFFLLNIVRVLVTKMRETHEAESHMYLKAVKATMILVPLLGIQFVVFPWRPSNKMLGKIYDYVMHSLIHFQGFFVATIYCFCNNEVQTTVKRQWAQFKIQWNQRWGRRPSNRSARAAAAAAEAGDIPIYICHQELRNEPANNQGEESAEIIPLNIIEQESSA
T1 sequence (looked up) 2: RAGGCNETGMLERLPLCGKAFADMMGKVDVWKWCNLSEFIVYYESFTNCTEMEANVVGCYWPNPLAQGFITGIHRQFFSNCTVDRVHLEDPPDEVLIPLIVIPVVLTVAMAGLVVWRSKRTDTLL

[1] = molecular target: T2, human calcitonin receptor (human, UniProt P30988 25-474); assay: cell-based or functional assay
T2 sequence (looked up): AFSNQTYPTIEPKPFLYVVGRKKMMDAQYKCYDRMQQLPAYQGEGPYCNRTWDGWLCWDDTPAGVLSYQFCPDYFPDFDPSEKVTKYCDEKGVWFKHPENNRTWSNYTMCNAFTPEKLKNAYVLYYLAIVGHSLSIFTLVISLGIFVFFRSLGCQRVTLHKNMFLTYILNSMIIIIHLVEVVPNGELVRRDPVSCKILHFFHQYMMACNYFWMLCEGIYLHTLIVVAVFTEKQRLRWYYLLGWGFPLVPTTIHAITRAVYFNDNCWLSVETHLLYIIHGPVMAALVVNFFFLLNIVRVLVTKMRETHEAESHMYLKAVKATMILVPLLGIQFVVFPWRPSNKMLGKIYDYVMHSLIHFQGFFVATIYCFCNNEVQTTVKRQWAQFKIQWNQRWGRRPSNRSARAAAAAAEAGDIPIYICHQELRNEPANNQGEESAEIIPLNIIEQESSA

| Binder | pEC50 (cAMP accumulation), 0% HSA (human amylin 3 receptor) | pEC50 (cAMP accumulation), 0.1% HSA (human amylin 3 receptor) | pEC50 (cAMP accumulation), 4% HSA (human amylin 3 receptor) | pEC50 (cAMP accumulation), 0% HSA [1] | pEC50 (cAMP accumulation), 0.1% HSA [1] | pEC50 (cAMP accumulation), 4% HSA [1] |
| --- | --- | --- | --- | --- | --- | --- |
| K(C20 diacid)CNTSTCATQRLANELHKSSNNFGPILPPTKVGSETY-NH2 (disulfide 2-7; N-terminus assumed; SMILES CC[C@H](C)[C@H](NC(=O)[C@@H]1CCCN1C(=O)CNC(=O)[C@H](Cc1ccccc1)NC(=O)[C@H](CC(N)=O)NC(=O)[C@H](CC(N)=O)NC(=O)[C@H](CO)NC(=O)[C@H](CO)NC(=O)[C@H](CCCCN)NC(=O)[C@H](Cc1c[nH]cn1)NC(=O)[C@H](CC(C)C)NC(=O)[C@H](CCC(=O)O)NC(=O)[C@H](CC(N)=O)NC(=O)[C@H](C)NC(=O)[C@H](CC(C)C)NC(=O)[C@H](CCCNC(=N)N)NC(=O)[C@H](CCC(N)=O)NC(=O)[C@@H](NC(=O)[C@H](C)NC(=O)[C@@H]1CSSC[C@H](NC(=O)[C@@H](N)CCCCNC(=O)CCCCCCCCCCCCCCCCCCC(=O)O)C(=O)N[C@@H](CC(N)=O)C(=O)N[C@@H]([C@@H](C)O)C(=O)N[C@@H](CO)C(=O)N[C@@H]([C@@H](C)O)C(=O)N1)[C@@H](C)O)C(=O)N[C@@H](CC(C)C)C(=O)N1CCC[C@H]1C(=O)N1CCC[C@H]1C(=O)N[C@H](C(=O)N[C@@H](CCCCN)C(=O)N[C@H](C(=O)NCC(=O)N[C@@H](CO)C(=O)N[C@@H](CCC(=O)O)C(=O)N[C@H](C(=O)N[C@@H](Cc1ccc(O)cc1)C(N)=O)[C@@H](C)O)C(C)C)[C@@H](C)O) [Compound A115] | 12.3 pEC50 | 10.7 pEC50 | 9.4 pEC50 | 11.5 pEC50 | 9.9 pEC50 | 8.5 pEC50 |
| K([dpeg″-dpeg″-γGlu-C18 diacid])CNTSTCATQRLANELHKSSNNFGPILPPTKVGSETY-NH2 (disulfide 2-7) [Compound A113] | 12.3 pEC50 | 10.6 pEC50 | 9 pEC50 | 11.3 pEC50 | 9.7 pEC50 | 8.1 pEC50 |
| K([γGlu-C20 diacid])CNTSTCATQRLANELHKSSNNFGPILPPTKVGSETY-NH2 (disulfide 2-7; N-terminus assumed; SMILES CC[C@H](C)[C@H](NC(=O)[C@@H]1CCCN1C(=O)CNC(=O)[C@H](Cc1ccccc1)NC(=O)[C@H](CC(N)=O)NC(=O)[C@H](CC(N)=O)NC(=O)[C@H](CO)NC(=O)[C@H](CO)NC(=O)[C@H](CCCCN)NC(=O)[C@H](Cc1c[nH]cn1)NC(=O)[C@H](CC(C)C)NC(=O)[C@H](CCC(=O)O)NC(=O)[C@H](CC(N)=O)NC(=O)[C@H](C)NC(=O)[C@H](CC(C)C)NC(=O)[C@H](CCCNC(=N)N)NC(=O)[C@H](CCC(N)=O)NC(=O)[C@@H](NC(=O)[C@H](C)NC(=O)[C@@H]1CSSC[C@H](NC(=O)[C@@H](N)CCCCNC(=O)CC[C@H](NC(=O)CCCCCCCCCCCCCCCCCCC(=O)O)C(=O)O)C(=O)N[C@@H](CC(N)=O)C(=O)N[C@@H]([C@@H](C)O)C(=O)N[C@@H](CO)C(=O)N[C@@H]([C@@H](C)O)C(=O)N1)[C@@H](C)O)C(=O)N[C@@H](CC(C)C)C(=O)N1CCC[C@H]1C(=O)N1CCC[C@H]1C(=O)N[C@H](C(=O)N[C@@H](CCCCN)C(=O)N[C@H](C(=O)NCC(=O)N[C@@H](CO)C(=O)N[C@@H](CCC(=O)O)C(=O)N[C@H](C(=O)N[C@@H](Cc1ccc(O)cc1)C(N)=O)[C@@H](C)O)C(C)C)[C@@H](C)O) [Compound A119] | 11.9 pEC50 | 10.2 pEC50 | 8.5 pEC50 | 11.2 pEC50 | 9.5 pEC50 | 7.9 pEC50 |
| SCNTSTCATQRLK([γGlu-Palmitoyl])NELHKSSNNFGPILPPTKVGSETY-NH2 (disulfide 2-7; N-terminus assumed; SMILES CCCCCCCCCCCCCCCC(=O)N[C@@H](CCC(=O)NCCCC[C@H](NC(=O)[C@H](CC(C)C)NC(=O)[C@H](CCCNC(=N)N)NC(=O)[C@H](CCC(N)=O)NC(=O)[C@@H](NC(=O)[C@H](C)NC(=O)[C@@H]1CSSC[C@H](NC(=O)[C@@H](N)CO)C(=O)N[C@@H](CC(N)=O)C(=O)N[C@@H]([C@@H](C)O)C(=O)N[C@@H](CO)C(=O)N[C@@H]([C@@H](C)O)C(=O)N1)[C@@H](C)O)C(=O)N[C@@H](CC(N)=O)C(=O)N[C@@H](CCC(=O)O)C(=O)N[C@@H](CC(C)C)C(=O)N[C@@H](Cc1c[nH]cn1)C(=O)N[C@@H](CCCCN)C(=O)N[C@@H](CO)C(=O)N[C@@H](CO)C(=O)N[C@@H](CC(N)=O)C(=O)N[C@@H](CC(N)=O)C(=O)N[C@@H](Cc1ccccc1)C(=O)NCC(=O)N1CCC[C@H]1C(=O)N[C@H](C(=O)N[C@@H](CC(C)C)C(=O)N1CCC[C@H]1C(=O)N1CCC[C@H]1C(=O)N[C@H](C(=O)N[C@@H](CCCCN)C(=O)N[C@H](C(=O)NCC(=O)N[C@@H](CO)C(=O)N[C@@H](CCC(=O)O)C(=O)N[C@H](C(=O)N[C@@H](Cc1ccc(O)cc1)C(N)=O)[C@@H](C)O)C(C)C)[C@@H](C)O)[C@@H](C)CC)C(=O)O) [Compound A107] | 12.5 pEC50 | 11.6 pEC50 | 10.3 pEC50 | 11.5 pEC50 | 10.5 pEC50 | 9 pEC50 |
| K(C18 diacid)CNTSTCATQRLANELHKSSNNFGPILPPTKVGSETY-NH2 (disulfide 2-7; N-terminus assumed; SMILES CC[C@H](C)[C@H](NC(=O)[C@@H]1CCCN1C(=O)CNC(=O)[C@H](Cc1ccccc1)NC(=O)[C@H](CC(N)=O)NC(=O)[C@H](CC(N)=O)NC(=O)[C@H](CO)NC(=O)[C@H](CO)NC(=O)[C@H](CCCCN)NC(=O)[C@H](Cc1c[nH]cn1)NC(=O)[C@H](CC(C)C)NC(=O)[C@H](CCC(=O)O)NC(=O)[C@H](CC(N)=O)NC(=O)[C@H](C)NC(=O)[C@H](CC(C)C)NC(=O)[C@H](CCCNC(=N)N)NC(=O)[C@H](CCC(N)=O)NC(=O)[C@@H](NC(=O)[C@H](C)NC(=O)[C@@H]1CSSC[C@H](NC(=O)[C@@H](N)CCCCNC(=O)CCCCCCCCCCCCCCCCC(=O)O)C(=O)N[C@@H](CC(N)=O)C(=O)N[C@@H]([C@@H](C)O)C(=O)N[C@@H](CO)C(=O)N[C@@H]([C@@H](C)O)C(=O)N1)[C@@H](C)O)C(=O)N[C@@H](CC(C)C)C(=O)N1CCC[C@H]1C(=O)N1CCC[C@H]1C(=O)N[C@H](C(=O)N[C@@H](CCCCN)C(=O)N[C@H](C(=O)NCC(=O)N[C@@H](CO)C(=O)N[C@@H](CCC(=O)O)C(=O)N[C@H](C(=O)N[C@@H](Cc1ccc(O)cc1)C(N)=O)[C@@H](C)O)C(C)C)[C@@H](C)O) [Compound A120] | 11.4 pEC50 | 9.7 pEC50 | 8.4 pEC50 | 10.3 pEC50 | 8.9 pEC50 | 7.4 pEC50 |
| K([γGlu-C18 diacid])CNTSTCATSRLANFLQKSSNNFGPILPPTKVGSETY-NH2 (disulfide 2-7; N-terminus assumed; SMILES CC[C@H](C)[C@H](NC(=O)[C@@H]1CCCN1C(=O)CNC(=O)[C@H](Cc1ccccc1)NC(=O)[C@H](CC(N)=O)NC(=O)[C@H](CC(N)=O)NC(=O)[C@H](CO)NC(=O)[C@H](CO)NC(=O)[C@H](CCCCN)NC(=O)[C@H](CCC(N)=O)NC(=O)[C@H](CC(C)C)NC(=O)[C@H](Cc1ccccc1)NC(=O)[C@H](CC(N)=O)NC(=O)[C@H](C)NC(=O)[C@H](CC(C)C)NC(=O)[C@H](CCCNC(=N)N)NC(=O)[C@H](CO)NC(=O)[C@@H](NC(=O)[C@H](C)NC(=O)[C@@H]1CSSC[C@H](NC(=O)[C@@H](N)CCCCNC(=O)CC[C@H](NC(=O)CCCCCCCCCCCCCCCCC(=O)O)C(=O)O)C(=O)N[C@@H](CC(N)=O)C(=O)N[C@@H]([C@@H](C)O)C(=O)N[C@@H](CO)C(=O)N[C@@H]([C@@H](C)O)C(=O)N1)[C@@H](C)O)C(=O)N[C@@H](CC(C)C)C(=O)N1CCC[C@H]1C(=O)N1CCC[C@H]1C(=O)N[C@H](C(=O)N[C@@H](CCCCN)C(=O)N[C@H](C(=O)NCC(=O)N[C@@H](CO)C(=O)N[C@@H](CCC(=O)O)C(=O)N[C@H](C(=O)N[C@@H](Cc1ccc(O)cc1)C(N)=O)[C@@H](C)O)C(C)C)[C@@H](C)O) [Compound A109] | 12.2 pEC50 | 11.1 pEC50 | 9.6 pEC50 | 11.7 pEC50 | 10.5 pEC50 | 9 pEC50 |
